# Measured values from the supplement of paper PMC7877785.
# ± gives the uncertainty stated by the source.
# Test: self-splicing fitness, log relative to wild type (ln ratio); higher = more splicing; Tetrahymena group I intron in knt gene, E. coli kanamycin selection, DiMSum; sequences stand for … in CUCUCU…GGAGGGAAAAGUUAUCAGGCAUGCACCUGGUAGCUAGUCUUUAAACCAAUAGAUUGCAUCGGUUUAAAAGGCAAGACCGUCAAAUUGCGGGAAAGGGGUCAACAGCCGUUCAGUACCAAGUCUCAGGGGAAACUUUGAGAUGGCCUUGCAAAGGGUAUGGUAAUAAGCUGACGGACAUGGUCCUAACCACGCAGCCAAGUCCUAAGUCAACAGAUCUUCUGUUGAUAUGGAUGCAGUUCACAGACUAAAUGUCGGUCGGGGAAGAUGUAUUCUUCUCAUAAGAUAUAGUCGGACCUCUCCUUAAUGGGAGCUAGCGGAUGAAGUGAUGCAACACUGGAGCCGCUGGGAACUAAUUUGUAUGCGAAAGUAUAUUGAUUAGUUUUGGAGUACUCGUGGUCG
# How it was run: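 A randomised library covering all eight P1ex-region intron nucleotides was built with the intron in the knt kanamycin-resistance gene on pET-22b(+) and held in E. coli BL21(DE3). Cells were grown overnight at 37°C or 30°C on LB agar, with or without 25 μg/mL kanamycin, plus 100 μg/mL carbenicillin, 50 μM IPTG and 0.2% rhamnose, and pooled colonies were amplicon-sequenced on an Illumina HiSeq 2500. DiMSum fitness is the error-weighted combination of wild-type-normalised replicate fold changes, kanamycin versus none.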
Sequence,self-splicing fitness (ln) (30 °C),self-splicing fitness (ln) (37 °C)
ACGCAGCAAUAUUACGACUU,-0.543 ± 0.077,0.0674 ± 0.09
ACGCAGCAAUAUUACGUAAU,-2.48 ± 0.083,-2.13 ± 0.12
AAUCAGCAAUAUUACGCAAU,-0.895 ± 0.067,-0.0563 ± 0.093
AUAUAGCAAUAUUACGGCGC,-1.38 ± 0.19,-0.869 ± 0.26
AACAAGCAAUAUUACGCUGA,-1.34 ± 0.087,-1.01 ± 0.11
CCGAAGCAAUAUUACGUUCG,-3.33 ± 0.13,-1.26 ± 0.11
AUUAAGCAAUAUUACGUACC,-2.05 ± 0.23,0.0479 ± 0.26
AGUAAGCAAUAUUACGGGUG,-3.13 ± 0.18,-0.695 ± 0.11
GACAAGCAAUAUUACGGGCA,-0.702 ± 0.049,-0.0944 ± 0.056
GCAGAGCAAUAUUACGGAUG,-2.76 ± 0.18,-1.82 ± 0.22
CGGCAGCAAUAUUACGGGAA,-2.49 ± 0.15,-1.97 ± 0.16
GUUUAGCAAUAUUACGUACA,-0.582 ± 0.2,-0.508 ± 0.22
CGAGAGCAAUAUUACGGGGC,-2.35 ± 0.31,-2.61 ± 0.39
GCCAAGCAAUAUUACGCUAG,-3.06 ± 0.15,-2.25 ± 0.17
GUGCAGCAAUAUUACGCGCU,-3.16 ± 0.48,-1.77 ± 0.36
UUAUAGCAAUAUUACGCGGA,-1.6 ± 0.12,-0.96 ± 0.14
GCUCAGCAAUAUUACGAUUU,-0.259 ± 0.056,0.00309 ± 0.075

Sequence,self-splicing fitness (ln) (30 °C),self-splicing fitness (ln) (37 °C)
GAGGAGCAAUAUUACGUGUU,-3.03 ± 0.21,-3.82 ± 0.42
GAGUAGCAAUAUUACGAUAG,-3.53 ± 0.26,-2.61 ± 0.28
GUUUAGCAAUAUUACGCCAA,-1.57 ± 0.27,-1.58 ± 0.24
GCAGAGCAAUAUUACGGAAU,-3.4 ± 0.36,-1.51 ± 0.34
GCUGAGCAAUAUUACGUGAG,-1.73 ± 0.11,-1.28 ± 0.095
UCUCAGCAAUAUUACGUAGU,-1.71 ± 0.1,-0.822 ± 0.11
UAUAAGCAAUAUUACGUUGG,-2.78 ± 0.13,-2.23 ± 0.17
AGGCAGCAAUAUUACGCACC,-0.268 ± 0.1,-0.0601 ± 0.15
CACGAGCAAUAUUACGUCGU,-2.05 ± 0.14,-3.43 ± 0.24
UCAGAGCAAUAUUACGGGUG,-3.2 ± 0.2,-1.46 ± 0.14
UUUAAGCAAUAUUACGUCGG,-0.492 ± 0.079,-0.762 ± 0.089
GUGUAGCAAUAUUACGUGUU,-3.14 ± 0.17,-1.58 ± 0.12
CAGAAGCAAUAUUACGUUGC,-4.27 ± 0.26,-2.74 ± 0.25
CAGGAGCAAUAUUACGCUGU,-3.13 ± 0.43,-2.65 ± 0.44
GUACAGCAAUAUUACGUUGG,-3.39 ± 0.21,-2.16 ± 0.15
AACAAGCAAUAUUACGCCCG,-0.206 ± 0.11,-0.347 ± 0.17
